Experimental findings from US20220111022A1 (IMMATICS BIOTECHNOLOGIES, published 2022) are described below.

This assay has as its target T1, HLA-A*02:01 (human).
T1 construct: MHC monomers first loaded with a UV-sensitive peptide (not identified) that is cleaved and exchanged for the test peptide; captured on streptavidin-coated plates and detected with anti-β2m; also called peptide-receptive MHC molecules; MHC class I
In words: UV-ligand exchange, anti-b2m ELISA; peptide exchange yield grade. An excerpt: Candidate peptides for T cell based therapies according to the present invention were further tested for their MHC binding capacity (affinity). The individual peptide-MHC complexes were produced by UV-ligand exchange, where a UV-sensitive peptide is cleaved upon UV-irradiation and exchanged with the peptide of interest as analyzed. Only peptide candidates that can effectively bind and stabilize the peptide-receptive MHC molecules prevent dissociation of the MHC complexes. To determine the yield of the exchange reaction, an ELISA was performed based on the detection of the light chain (β2m) of stabilized MHC complexes. The assay was performed as generally described in Rodenko et al. (Rodenko et al., 2006).
96 well MAXISorp plates (NUNC) were coated over night with 2 μg/ml streptavidin in PBS at room temperature, washed 4× and blocked for 1 h at 37° C. in 2% BSA containing blocking buffer. Refolded HLA-A*02:01/MLA-001 monomers served as standards, covering the range of 15-500 ng/ml. Peptide-MHC monomers of the UV-exchange reaction were diluted 100-fold in blocking buffer. Samples were incubated for 1 h at 37° C., washed four times, incubated with 2 μg/ml HRP conjugated anti-β2m for 1h at 37° C., washed again and detected with TMB solution that is stopped with […]. Absorption was measured at 450 nm. Candidate peptides that show a high exchange yield (preferably higher than 50%, most preferred higher than 75%) are generally preferred for a generation and production of antibodies or fragments thereof, and/or T cell receptors or fragments thereof, as they show sufficient avidity to the MHC molecules and prevent dissociation of the MHC complexes.
In general terms: ELISA stands for enzyme-linked immunosorbent assay.

B1: SMASFLKDV (peptide)
peptide: SMASFLKDV
For the molecule B1, the peptide exchange yield is ≥ 75%.

B2: KMLDETVLV (peptide)
peptide: KMLDETVLV
B2 yielded a peptide exchange yield of 50 to 75%.

B3: ALAGLVYDA (peptide)
peptide: ALAGLVYDA
With B3, the peptide exchange yield was ≥ 75%.

B4: ILLDKSTVL (peptide)
peptide: ILLDKSTVL
With B4, the peptide exchange yield was ≥ 75%.

B5: SLLDENDVSSYL (peptide)
peptide: SLLDENDVSSYL
Consider B5, for which the peptide exchange yield is ≥ 75%.

B6: ALDSTNSEL (peptide)
peptide: ALDSTNSEL
For the molecule B6, the peptide exchange yield was ≥ 75%.

B7: ALMDVSQNV (peptide)
peptide: ALMDVSQNV
Turning to B7, the peptide exchange yield is ≥ 75%.

B8: FISDFTMTI (peptide)
peptide: FISDFTMTI
Turning to B8, the peptide exchange yield is ≥ 75%.

B9: YLHGFDLSL (peptide)
peptide: YLHGFDLSL
As to B9, the peptide exchange yield was ≥ 75%.

B10: FLKDVTAQI (peptide)
peptide: FLKDVTAQI
Take B10: the peptide exchange yield was ≥ 75%.

B11: GLDRTQLVNV (peptide)
peptide: GLDRTQLVNV
For B11, the peptide exchange yield is ≥ 75%.

B12: AIDQTITEA (peptide)
peptide: AIDQTITEA
As for B12, the peptide exchange yield was in the range of 50 to 75%.

B13: FLNVDVSEV (peptide)
peptide: FLNVDVSEV
As for B13, the peptide exchange yield was ≥ 75%.

B14: LLDTTDVYL (peptide)
peptide: LLDTTDVYL
Molecule B14 displayed a peptide exchange yield of 50 to 75%.

B15: ALDSSLQLL (peptide)
peptide: ALDSSLQLL
In the case of B15, the peptide exchange yield is ≥ 75%.

B16: SLLRDFTLV (peptide)
peptide: SLLRDFTLV
On to B16, for which the peptide exchange yield is ≥ 75%.

B17: RLQDTTIGL (peptide)
peptide: RLQDTTIGL
Turning to B17, the peptide exchange yield was ≥ 75%.

B18: ILFDPDNSSAL (peptide)
peptide: ILFDPDNSSAL
Consider B18, for which the peptide exchange yield is ≥ 75%.

B19: LLDITNPVL (peptide)
peptide: LLDITNPVL
Regarding B19, the peptide exchange yield is ≥ 75%.

B20: KLAPDLTEL (peptide)
peptide: KLAPDLTEL
B20: the peptide exchange yield fell in the range of 50 to 75%.

B21: KLHDTSFCL (peptide)
peptide: KLHDTSFCL
On to B21, for which the peptide exchange yield was ≥ 75%.

B22: ALADLTGTV (peptide)
peptide: ALADLTGTV
As for B22, the peptide exchange yield is ≥ 75%.

B23: AVDKTQTSV (peptide)
peptide: AVDKTQTSV
For the molecule B23, the peptide exchange yield lay in the range of 50 to 75%.

B24: FLNPDGSDCTL (peptide)
peptide: FLNPDGSDCTL
As for B24, the peptide exchange yield was ≥ 75%.

B25: LLDDQTVTF (peptide)
peptide: LLDDQTVTF
In turn, B25 registered a peptide exchange yield of 50 to 75%.

B26: KILDFTGPLFL (peptide)
peptide: KILDFTGPLFL
Consider B26, for which the peptide exchange yield was ≥ 75%.

B27: YLGAVFDL (peptide)
peptide: YLGAVFDL
Consider B27, for which the peptide exchange yield was ≥ 75%.
